Target: T1, PSD‐95 third PDZ domain (residue 307–446) (UniProt P78352 307-446)
T1 construct: also called PSD‐95 (3); PSD‐95 (domain 3); source: spotted on a PDZ array membrane (Zhang et al. 2007)
Experiment: peptide or protein array; PDZ filter overlay: 96 Class I PDZ domains spotted on a nylon membrane; overlaid with 100 nmol/L GST/NBCn1 (or GST only) in blot buffer (50 mmol/L NaCl, 2% dry milk, 0.1% Tween 20, 10 mmol/L HEPES; pH 7.4) for 1 h at room temperature; detected with HRP-conjugated anti-GST antibody; done three times
Details: both partners purified

T1 sequence (P78352 307-446): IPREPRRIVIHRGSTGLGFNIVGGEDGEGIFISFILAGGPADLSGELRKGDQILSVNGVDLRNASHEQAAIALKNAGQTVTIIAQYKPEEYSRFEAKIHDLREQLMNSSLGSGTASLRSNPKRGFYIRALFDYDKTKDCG

B1: GST/NBCn1 fusion protein containing the C‐terminal 26 amino acids of rat NBCn1 (domain or fragment, UniProt Q9R1N3-2 1229-1254, looked up)
chain: PEKPVSVTINFEDEPSKKYMDAETSL
notes: NBCn1 (SLC4A7), rat, the C-terminal 26 amino acids; also called C‐terminal domain of NBCn1 fused to GST; source: prepared as described previously (Lee et al. 2012)
binding result: binds

From PMC4098744, “Systematic family‐wide analysis of sodium bicarbonate cotransporter NBCn1/SLC4A7 interactions with PDZ scaffold proteins” (Physiological Reports, 2014)
